# PMC5740878
# Target: UHRF1-mCherry (UniProt Q96T88)
# Assay: FRET or BRET; FLIM-FRET in fixed HeLa cells 24 h after co-transfection of TIP60-eGFP WT/mutants (donor) and UHRF1-mCherry (acceptor) 1:1; two-photon excitation at 930 nm; E = 1-(τDA/τD); one-component and two-component analysis of decays
# Chain of UHRF1-mCherry (Q96T88 whole entry): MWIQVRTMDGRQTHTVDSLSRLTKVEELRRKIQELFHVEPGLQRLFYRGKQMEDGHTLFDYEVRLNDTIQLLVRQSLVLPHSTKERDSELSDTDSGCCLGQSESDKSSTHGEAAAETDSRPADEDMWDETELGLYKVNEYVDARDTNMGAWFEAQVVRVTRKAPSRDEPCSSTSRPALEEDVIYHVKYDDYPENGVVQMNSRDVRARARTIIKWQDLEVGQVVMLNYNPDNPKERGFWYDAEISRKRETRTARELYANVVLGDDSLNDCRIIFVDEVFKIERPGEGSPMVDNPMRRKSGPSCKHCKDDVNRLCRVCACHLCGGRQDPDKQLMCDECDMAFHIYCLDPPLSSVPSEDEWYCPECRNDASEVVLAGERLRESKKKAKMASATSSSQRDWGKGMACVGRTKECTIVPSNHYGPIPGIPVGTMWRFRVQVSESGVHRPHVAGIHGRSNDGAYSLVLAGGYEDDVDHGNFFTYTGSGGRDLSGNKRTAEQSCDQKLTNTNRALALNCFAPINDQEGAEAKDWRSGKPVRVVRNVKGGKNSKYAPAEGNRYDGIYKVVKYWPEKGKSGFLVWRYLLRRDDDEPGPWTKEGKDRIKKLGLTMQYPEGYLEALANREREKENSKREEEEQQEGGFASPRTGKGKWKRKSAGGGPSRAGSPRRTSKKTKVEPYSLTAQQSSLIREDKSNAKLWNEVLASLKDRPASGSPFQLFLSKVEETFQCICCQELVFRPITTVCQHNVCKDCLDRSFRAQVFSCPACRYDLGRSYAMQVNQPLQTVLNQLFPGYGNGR
# Chain of TIP60∆CRD-eGFP (Q92993 whole entry): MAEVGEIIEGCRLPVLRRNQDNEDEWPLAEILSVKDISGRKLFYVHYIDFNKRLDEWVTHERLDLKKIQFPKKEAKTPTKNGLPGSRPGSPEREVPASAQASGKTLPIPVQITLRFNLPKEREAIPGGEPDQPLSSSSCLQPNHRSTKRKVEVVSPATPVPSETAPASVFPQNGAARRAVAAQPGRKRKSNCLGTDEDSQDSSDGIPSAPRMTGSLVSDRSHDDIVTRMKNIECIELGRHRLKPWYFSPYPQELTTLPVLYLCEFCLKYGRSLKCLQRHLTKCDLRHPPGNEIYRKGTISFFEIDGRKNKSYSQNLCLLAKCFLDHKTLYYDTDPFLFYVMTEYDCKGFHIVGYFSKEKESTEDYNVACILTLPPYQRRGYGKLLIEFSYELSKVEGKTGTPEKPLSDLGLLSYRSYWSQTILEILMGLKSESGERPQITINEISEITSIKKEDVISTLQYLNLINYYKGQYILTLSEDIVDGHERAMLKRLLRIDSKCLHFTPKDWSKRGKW
substance,measurement,value
TIP60∆CRD-eGFP (from UniProt Q92993 1-513) (natural protein),average FRET,12.2%
same,"average FRET of the short lifetime component, two-component model",43%
same,"mean short lifetime component (τ1), two-component model",1.4 ns
same,population (α1) of the interacting short lifetime component,19%
